According to PMC3581536:

Target: MazFa tagged with 6 histidine at its C-terminus (Anabaena sp. PCC 7120)
Assay: pull-down; MazEa and MazFa-His6 co-expressed in E. coli BL21(DE3)(pJS798); co-purified on Ni2+-NTA His.Bind resin under native conditions; 15% SDS-PAGE, bands identified by MALDI-TOF MS, densitometry with Image J

stoichiometry N (MazEa per MazFa (molar ratio)): 0.5
Substance: MazEa (natural protein)
